The results in this text go back to patent publication US20140087995A1 (published 2014).

Numbered stars: 1 amine (or outer) side, 2 acyl side, 3 side chain; on linkers, the order of the positions; unused ones are H or OH. Bridge positions count the residues as written; N and C are the ends. Side chains are listed from the residue outwards. Ends that are not written are not given here. * marks the point of attachment. C20 diacid = O=C(O)CCCCCCCCCCCCCCCCCCC(=O)*; γGlu = O=C(O)[C@H](CCC(=O)[*:2])N[*:1]; AEEA = NCCOCCOCC(=O)O

In assay [1] the target is T1, human amylin receptor (amylin 3(a) receptor: human calcitonin receptor coexpressed with RAMP-3) (human, UniProt P30988 25-474; O60896 24-148).
T1 sequence (looked up) 1: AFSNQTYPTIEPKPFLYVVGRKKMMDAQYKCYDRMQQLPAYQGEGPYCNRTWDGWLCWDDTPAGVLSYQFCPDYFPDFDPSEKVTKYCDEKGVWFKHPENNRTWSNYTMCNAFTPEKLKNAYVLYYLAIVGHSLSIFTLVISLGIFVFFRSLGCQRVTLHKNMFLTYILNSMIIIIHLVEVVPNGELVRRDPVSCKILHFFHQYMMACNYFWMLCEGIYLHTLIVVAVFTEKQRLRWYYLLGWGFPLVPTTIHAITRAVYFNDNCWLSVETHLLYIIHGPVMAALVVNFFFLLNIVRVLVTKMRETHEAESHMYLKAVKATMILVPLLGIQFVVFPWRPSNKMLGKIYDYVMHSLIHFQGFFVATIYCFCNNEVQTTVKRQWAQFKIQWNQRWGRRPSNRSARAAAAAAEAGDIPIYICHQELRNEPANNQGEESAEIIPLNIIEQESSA
T1 sequence (looked up) 2: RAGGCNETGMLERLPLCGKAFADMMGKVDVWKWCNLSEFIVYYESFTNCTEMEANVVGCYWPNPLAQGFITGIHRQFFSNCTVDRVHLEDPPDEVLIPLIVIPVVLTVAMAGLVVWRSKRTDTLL
The assay can be described thus: cell-based or functional assay.

The target of assay [2] is T2, human calcitonin receptor (human, UniProt P30988 25-474).
T2 sequence (looked up): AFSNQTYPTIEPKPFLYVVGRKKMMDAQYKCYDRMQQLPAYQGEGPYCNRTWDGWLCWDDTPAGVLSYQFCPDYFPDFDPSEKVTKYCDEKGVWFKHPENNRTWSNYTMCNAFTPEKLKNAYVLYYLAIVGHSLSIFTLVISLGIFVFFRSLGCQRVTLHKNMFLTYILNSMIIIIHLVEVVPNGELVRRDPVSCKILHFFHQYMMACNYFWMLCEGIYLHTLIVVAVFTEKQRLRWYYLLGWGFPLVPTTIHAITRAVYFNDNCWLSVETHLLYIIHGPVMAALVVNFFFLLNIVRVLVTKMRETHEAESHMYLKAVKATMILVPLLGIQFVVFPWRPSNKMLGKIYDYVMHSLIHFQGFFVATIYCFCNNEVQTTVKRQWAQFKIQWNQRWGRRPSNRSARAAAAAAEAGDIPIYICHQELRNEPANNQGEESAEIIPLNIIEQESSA
Briefly: cell-based or functional assay.

B1: N^ε1-[2-[2-[2-[[(4S)-4-carboxy-4-(19-carboxynonadecanoylamino)butanoyl]amino]ethoxy]ethoxy]acetyl]-[Arg17,Pro21,Pro27,His34]-h-amylin (peptide)
peptide: K([AEEA-γGlu-C20 diacid])CNTATCATQRLANFLRHSSPNFGAIPSSTNVGHNTY-NH2
modifications: disulfide 2-7; N-terminus assumed
SMILES: CC[C@H](C)[C@H](NC(=O)[C@H](C)NC(=O)CNC(=O)[C@H](Cc1ccccc1)NC(=O)[C@H](CC(N)=O)NC(=O)[C@@H]1CCCN1C(=O)[C@H](CO)NC(=O)[C@H](CO)NC(=O)[C@H](Cc1c[nH]cn1)NC(=O)[C@H](CCCNC(=N)N)NC(=O)[C@H](CC(C)C)NC(=O)[C@H](Cc1ccccc1)NC(=O)[C@H](CC(N)=O)NC(=O)[C@H](C)NC(=O)[C@H](CC(C)C)NC(=O)[C@H](CCCNC(=N)N)NC(=O)[C@H](CCC(N)=O)NC(=O)[C@@H](NC(=O)[C@H](C)NC(=O)[C@@H]1CSSC[C@H](NC(=O)[C@@H](N)CCCCNC(=O)COCCOCCNC(=O)CC[C@H](NC(=O)CCCCCCCCCCCCCCCCCCC(=O)O)C(=O)O)C(=O)N[C@@H](CC(N)=O)C(=O)N[C@@H]([C@@H](C)O)C(=O)N[C@@H](C)C(=O)N[C@@H]([C@@H](C)O)C(=O)N1)[C@@H](C)O)C(=O)N1CCC[C@H]1C(=O)N[C@@H](CO)C(=O)N[C@@H](CO)C(=O)N[C@H](C(=O)N[C@@H](CC(N)=O)C(=O)N[C@H](C(=O)NCC(=O)N[C@@H](Cc1c[nH]cn1)C(=O)N[C@@H](CC(N)=O)C(=O)N[C@H](C(=O)N[C@@H](Cc1ccc(O)cc1)C(N)=O)[C@@H](C)O)C(C)C)[C@@H](C)O
notes: also called compound 76
Consider B1, for which the “hAmylin-R funct. EC50 (pM)” value in assay [1] came to 297 pM. In addition, the “hCTR funct. EC50 (pM)” value in assay [2] worked out at 7370 pM.

B2: N^ε1-[2-[2-[2-[[2-[2-[2-[[(4S)-4-carboxy-4-(19-carboxynonadecanoylamino)butanoyl]amino]ethoxy]ethoxy]acetyl]amino]ethoxy]ethoxy]acetyl]-[Arg17,Pro21,Pro27,Pro31 … (peptide)
peptide: K([AEEA-AEEA-γGlu-C20 diacid])CNTATCATQRLANFLRHSSPNFGAIPSSTPVGSNTY-NH2
modifications: disulfide 2-7; N-terminus assumed
SMILES: CC[C@H](C)[C@H](NC(=O)[C@H](C)NC(=O)CNC(=O)[C@H](Cc1ccccc1)NC(=O)[C@H](CC(N)=O)NC(=O)[C@@H]1CCCN1C(=O)[C@H](CO)NC(=O)[C@H](CO)NC(=O)[C@H](Cc1c[nH]cn1)NC(=O)[C@H](CCCNC(=N)N)NC(=O)[C@H](CC(C)C)NC(=O)[C@H](Cc1ccccc1)NC(=O)[C@H](CC(N)=O)NC(=O)[C@H](C)NC(=O)[C@H](CC(C)C)NC(=O)[C@H](CCCNC(=N)N)NC(=O)[C@H](CCC(N)=O)NC(=O)[C@@H](NC(=O)[C@H](C)NC(=O)[C@@H]1CSSC[C@H](NC(=O)[C@@H](N)CCCCNC(=O)COCCOCCNC(=O)COCCOCCNC(=O)CC[C@H](NC(=O)CCCCCCCCCCCCCCCCCCC(=O)O)C(=O)O)C(=O)N[C@@H](CC(N)=O)C(=O)N[C@@H]([C@@H](C)O)C(=O)N[C@@H](C)C(=O)N[C@@H]([C@@H](C)O)C(=O)N1)[C@@H](C)O)C(=O)N1CCC[C@H]1C(=O)N[C@@H](CO)C(=O)N[C@@H](CO)C(=O)N[C@H](C(=O)N1CCC[C@H]1C(=O)N[C@H](C(=O)NCC(=O)N[C@@H](CO)C(=O)N[C@@H](CC(N)=O)C(=O)N[C@H](C(=O)N[C@@H](Cc1ccc(O)cc1)C(N)=O)[C@@H](C)O)C(C)C)[C@@H](C)O
notes: also called compound 96
B2: in assay [1], the “hAmylin-R funct. EC50 (pM)” value was found to be 181 pM. In addition, in assay [2], the “Ratio hCT/hAmylin funct.” value is 21 and the “hCTR funct. EC50 (pM)” value was 3800 pM.

B3: N^ε1-[2-[2-[2-[[2-[2-[2-[[(4S)-4-carboxy-4-(19-carboxynonadecanoylamino)butanoyl]amino]ethoxy]ethoxy]acetyl]amino]ethoxy]ethoxy]acetyl]-[Arg17,Pro21,Pro27,Pro34 … (peptide)
peptide: K([AEEA-AEEA-γGlu-C20 diacid])CNTATCATQRLANFLRHSSPNFGAIPSSTNVGPNTY-NH2
modifications: disulfide 2-7; N-terminus assumed
SMILES: CC[C@H](C)[C@H](NC(=O)[C@H](C)NC(=O)CNC(=O)[C@H](Cc1ccccc1)NC(=O)[C@H](CC(N)=O)NC(=O)[C@@H]1CCCN1C(=O)[C@H](CO)NC(=O)[C@H](CO)NC(=O)[C@H](Cc1c[nH]cn1)NC(=O)[C@H](CCCNC(=N)N)NC(=O)[C@H](CC(C)C)NC(=O)[C@H](Cc1ccccc1)NC(=O)[C@H](CC(N)=O)NC(=O)[C@H](C)NC(=O)[C@H](CC(C)C)NC(=O)[C@H](CCCNC(=N)N)NC(=O)[C@H](CCC(N)=O)NC(=O)[C@@H](NC(=O)[C@H](C)NC(=O)[C@@H]1CSSC[C@H](NC(=O)[C@@H](N)CCCCNC(=O)COCCOCCNC(=O)COCCOCCNC(=O)CC[C@H](NC(=O)CCCCCCCCCCCCCCCCCCC(=O)O)C(=O)O)C(=O)N[C@@H](CC(N)=O)C(=O)N[C@@H]([C@@H](C)O)C(=O)N[C@@H](C)C(=O)N[C@@H]([C@@H](C)O)C(=O)N1)[C@@H](C)O)C(=O)N1CCC[C@H]1C(=O)N[C@@H](CO)C(=O)N[C@@H](CO)C(=O)N[C@H](C(=O)N[C@@H](CC(N)=O)C(=O)N[C@H](C(=O)NCC(=O)N1CCC[C@H]1C(=O)N[C@@H](CC(N)=O)C(=O)N[C@H](C(=O)N[C@@H](Cc1ccc(O)cc1)C(N)=O)[C@@H](C)O)C(C)C)[C@@H](C)O
notes: also called compound 98
In the case of B3, the “hAmylin-R funct. EC50 (pM)” value in assay [1] stood at 84 pM. In addition, in assay [2], the “Ratio hCT/hAmylin funct.” value amounted to 19.5 and the “hCTR funct. EC50 (pM)” value amounted to 1630 pM.

B4: N^ε1-[2-[2-[2-[[2-[2-[2-[[(4S)-4-carboxy-4-(19-carboxynonadecanoylamino)butanoyl]amino]ethoxy]ethoxy]acetyl]amino]ethoxy]ethoxy]acetyl]-[Arg17,Pro21,Pro27,Arg34 … (peptide)
peptide: K([AEEA-AEEA-γGlu-C20 diacid])CNTATCATQRLANFLRHSSPNFGAIPSSTNVGRNTY-NH2
modifications: disulfide 2-7; N-terminus assumed
SMILES: CC[C@H](C)[C@H](NC(=O)[C@H](C)NC(=O)CNC(=O)[C@H](Cc1ccccc1)NC(=O)[C@H](CC(N)=O)NC(=O)[C@@H]1CCCN1C(=O)[C@H](CO)NC(=O)[C@H](CO)NC(=O)[C@H](Cc1c[nH]cn1)NC(=O)[C@H](CCCNC(=N)N)NC(=O)[C@H](CC(C)C)NC(=O)[C@H](Cc1ccccc1)NC(=O)[C@H](CC(N)=O)NC(=O)[C@H](C)NC(=O)[C@H](CC(C)C)NC(=O)[C@H](CCCNC(=N)N)NC(=O)[C@H](CCC(N)=O)NC(=O)[C@@H](NC(=O)[C@H](C)NC(=O)[C@@H]1CSSC[C@H](NC(=O)[C@@H](N)CCCCNC(=O)COCCOCCNC(=O)COCCOCCNC(=O)CC[C@H](NC(=O)CCCCCCCCCCCCCCCCCCC(=O)O)C(=O)O)C(=O)N[C@@H](CC(N)=O)C(=O)N[C@@H]([C@@H](C)O)C(=O)N[C@@H](C)C(=O)N[C@@H]([C@@H](C)O)C(=O)N1)[C@@H](C)O)C(=O)N1CCC[C@H]1C(=O)N[C@@H](CO)C(=O)N[C@@H](CO)C(=O)N[C@H](C(=O)N[C@@H](CC(N)=O)C(=O)N[C@H](C(=O)NCC(=O)N[C@@H](CCCNC(=N)N)C(=O)N[C@@H](CC(N)=O)C(=O)N[C@H](C(=O)N[C@@H](Cc1ccc(O)cc1)C(N)=O)[C@@H](C)O)C(C)C)[C@@H](C)O
notes: also called compound 95
B4: in assay [1], the “hAmylin-R funct. EC50 (pM)” value is 651 pM. In addition, in assay [2], the “Ratio hCT/hAmylin funct.” value is 33 and the “hCTR funct. EC50 (pM)” value worked out at 21500 pM.
